In assay [1] the target is papain (UniProt P00784). Kind of assay: cell-based or functional assay.
Assay [2] has as its target T1, human PD-L1 on CHO cells (human, UniProt Q9NZQ7 19-290). Kind of assay: cell-based or functional assay.
Assay [3] deals with T1, human PD-L1 on CHO cells. Kind of assay: cell-based or functional assay. The source holds these as a separate data set.
Assay [4] addresses T2, human PD-L1-Fc (R&D Systems) (human, UniProt Q9NZQ7 19-239).
T2 construct: Bought from R&D Systems; Biotinylated in-house for the phage selection; also called huPD-L1-Fc; human PD-L1-Fc antigen; not shown: Fc part of the bought fusion
Kind of assay: PD-1/PD-L1 competitive ELISA, average n = 2; competitor PD-1-Fc coated. How it is done:
(§1) The competitive inhibition of AFFIMER® multimers was evaluated by enzyme linked immunosorbent assay (ELISA). Human PD-1-Fc (R&D Systems) was coated at 0.5 μg/ml on the plate. Plates were washed two times with […] of washing buffer (PBS, Tween 20 0.1%) with a plate washer and saturated with Casein 5% (Sigma) in PBS for 90 minutes at room temperature (25±1° C.). Plates were subsequently washed. AFFIMER® polypeptides and controls (human PD-1-Fc; R&D Systems or blank) were then diluted in duplicate, and preincubated with huPD-L1-Fc (R&D Systems) at a predefined concentration equivalent to the EC₈₀ for 30 minutes then loaded on the plate for 90 minutes at room temperature (25±1° C.). Plates were washed 3 times. Biotinylated polyclonal antibody anti-human PD-L1 (R&D Systems) was then diluted in dilution buffer and incubated 90 minutes at room temperature (25±1° C.). Plates were washed 3 times and Streptavidin HRP was incubated for 30 minutes at room temperature (25±1° C.). Plates were washed and the substrate (TMB; Pierce Thermo-Scientific) added to the plate for 10 minutes. The reaction was stopped using an acidic solution and plates were read at absorbance 450-630 nm. The IC₅₀ was then calculated using the interpolated non-linear four-parameter standard curve.
Analysis identified three mutants which no longer bind target antigen, three mutants which have reduced binding and twelve (12) mutants which retaining binding to target antigen. […] The mutant AFFIMER® clones which retained binding to PD-L1 were assessed in both a competition ELISA (as described in Example 4) and the PD1:PD-L1 blockade cell-based Promega assay (as described in Example 5).

The target in assay [5] is T1, human PD-L1 on CHO cells. Kind of assay: flow cytometry histogram, live-gated hu-PD-L1 CHO cells, Affimer at 100 nM. As for the experimental part:
Human PD-L1 CHO cells having a cell surface over expressing human PD-L1 or CHO-negative cells were plated at 50,000 cells per well in a round bottom tissue culture plate. AFFIMER® clones were titrated from 700 nM or monoclonal antibody (mAb) controls titrated from 10 nM in cell staining buffer (PBS, 1% BSA+2 mM EDTA+0.05% Sodium Azide buffer) and incubated for 1 hour. After two washes with staining buffer, AFFIMER® polypeptides were detected with an anti-cystatin antibody. After a further two washes, AF488-conjugated anti-goat antibody (to detect AFFIMER® polypeptides) or AF488-conjugated anti human IgG1 antibody (to detect mAb controls) were incubated for 40 minutes followed by an additional wash step. Viability dye (Zombie Aqua reagent, Biolegend) was added and the plates were incubated for 10 min. After a final wash, cells were fixed and the data acquired using a multiparameter flow cytometer (Guava 12HT, Luminex Corp).

The target in assay [6] is T2, human PD-L1-Fc (R&D Systems). Kind of assay: PD-1/PD-L1 competition ELISA, % inhibition: Affimer pre-incubated with huPD-L1-Fc, then loaded on plate-coated human PD-1-Fc (blocked ligand). As for the experimental part: as §1, with “curve. […]” for “curve.”
For assay [7] the target is unchanged. Kind of assay: SPR (Biacore T200): human PD-L1-Fc amine-coupled on a CM5 chip, Affimer monomer titrated as analyte (500 s association, 1000 s dissociation), 1:1 Langmuir fit. How it is done: BIACORE™ T200 binding kinetic analysis was performed on monomer AFFIMER® clones with running buffer HBS-EP+ (Cytiva) and a series S sensor CM5 chip immobilized with human PD-L1-Fc (R&D Systems) in 10 mM Sodium acetate pH4.0 μsing amine coupling reagents (Cytiva). A concentration titration of AFFIMER® monomer was run as analyte with an association time of 150 seconds, followed by a dissociation time of 300 seconds at a flow rate of 30 μl/min. For Clone 80, the association time was increased to 500 seconds and 1000 seconds dissociation time. The human PD-L1-Fc immobilized surface was regenerated with 3-3.5 mM NaOH solution (Cytiva) for 20-30 seconds at 20 μl/min flow rate. The kinetic data was blank subtracted and fit to a 1:1 Langmuir binding model (BIAcore evaluation software; Cytiva) to calculate an apparent KD value.

Assay [8] shares this target. Briefly: PD-L1/PD-1 competition ELISA, % inhibition: Affimer pre-incubated with huPD-L1-Fc, then loaded on plate-coated human PD-1-Fc (blocked ligand). Column head on the sheet reads 'EC50nM'; the text calls these values IC50. As for the experimental part: as §1
The target is the same in assay [9]. Briefly: SPR (Biacore); huPD-L1-Fc captured on Protein A chip, Affimer as analyte 0.125 to 2 nM; monomer, huPD-L1-Fc captured on Protein A chip. How it is done:
(§2) Secreted AFFIMER® clones were purified from supernatant using Ni Sepharose Excel resin (Cytiva) as described in Example 2 and run-on SEC-HPLC to assess their purity and molecular weight (FIG. 11). BIACORE™ was run using a sensor chip Protein A (Cytiva) capturing huPD-L1-Fc (R&D System), and AFFIMER® clones were run in solution as analyte increasing from 0.125 to 2 nM titration and a dissociation time of 2000 seconds. Regeneration of the antigen captured on the chip was performed using a 10 mM glycine pH1.5 solution. […] Avidity was further shown in both the PD-L1 binding ELISA and the Promega cell-based assay, with the ILF dimer blocking the PD-L1:PD1 interaction more strongly than a mammalian produced monomer (FIGS. 13-14).

The target is the same in assay [10]. Briefly: SPR (Biacore): huPD-L1-Fc captured on a Protein A sensor chip, HEK-expressed Affimer as analyte rising from 0.125 to 2 nM, 2000 s dissociation. How it is done: as §2
Assay [11] shares this target. Kind of assay: PD-L1 binding ELISA (direct binding, absorbance 450nm - 630nm rises with the Affimer concentration). Column head on the sheet reads 'IC50 nM' although the curve is a half-maximal binding curve; the text does not name the PD-L1 reagent on the plate.
Assay [12] deals with T1, human PD-L1 on CHO cells. Kind of assay: cell-based or functional assay. The source holds these as a separate data set.
The target in assay [13] is T2, human PD-L1-Fc (R&D Systems). Briefly: SPR (Biacore 8K), binding to PD-L1-Fc.
For assay [14], the target named is T1, human PD-L1 on CHO cells. Kind of assay: cell-based or functional assay. The source holds these as a separate data set.
Assay [15] concerns the target T1, human PD-L1 on CHO cells. Kind of assay: cell-based or functional assay. This is another data set of the same source.
Assay [16] deals with T1, human PD-L1 on CHO cells. Kind of assay: cell-based or functional assay. This is another data set of the same source.
Assay [17] has as its target T1, human PD-L1 on CHO cells. Briefly: cell-based or functional assay. This is another data set of the same source.
Assay [18] addresses T2, human PD-L1-Fc (R&D Systems). Briefly: SPR (Biacore); huPD-L1-Fc captured on Protein A chip, Affimer as analyte 0.125 to 2 nM; ILF homodimer (avidity), huPD-L1-Fc captured on Protein A chip. As for the experimental part: as §2

Like-named read-outs stand apart in the source and are kept apart here.

T1 sequence (Q9NZQ7 19-290): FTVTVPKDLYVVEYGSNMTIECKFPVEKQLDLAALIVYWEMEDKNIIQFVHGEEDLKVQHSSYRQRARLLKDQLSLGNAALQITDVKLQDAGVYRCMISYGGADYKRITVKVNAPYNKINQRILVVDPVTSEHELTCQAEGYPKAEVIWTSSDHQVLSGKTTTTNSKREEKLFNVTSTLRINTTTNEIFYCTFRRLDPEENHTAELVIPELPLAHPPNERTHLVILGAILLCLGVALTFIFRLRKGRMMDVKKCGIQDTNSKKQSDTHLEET
T2 sequence (Q9NZQ7 19-239 limits assumed): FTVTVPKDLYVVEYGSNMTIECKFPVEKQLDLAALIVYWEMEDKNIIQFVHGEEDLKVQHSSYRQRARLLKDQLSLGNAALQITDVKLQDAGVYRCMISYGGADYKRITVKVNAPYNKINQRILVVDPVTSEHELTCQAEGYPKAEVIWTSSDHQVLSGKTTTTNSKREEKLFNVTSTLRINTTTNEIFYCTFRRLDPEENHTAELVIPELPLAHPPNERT
Chain of papain (P00784 134-345 limits assumed): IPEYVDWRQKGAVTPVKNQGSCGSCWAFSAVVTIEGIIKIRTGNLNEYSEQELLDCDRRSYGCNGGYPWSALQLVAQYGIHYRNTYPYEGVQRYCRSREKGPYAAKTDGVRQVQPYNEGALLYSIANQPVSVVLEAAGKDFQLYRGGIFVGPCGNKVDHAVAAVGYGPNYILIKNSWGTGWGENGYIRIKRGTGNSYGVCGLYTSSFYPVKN

On to Stefin A (from UniProt P01040 1-98), for which, in assay [1], the IC50, inhibition of papain cleavage of Z-Phe-Arg-AMC is 3.8 nM.

B1: Clone 80 (designed binder)
chain: MIPGGLSEAKPATPEIQEIVDKVKPQLEEKTGETYGKLEAVQYKTQVVRRKHFPQWPGTNYYIKVRAGDNKYMHLKVFKSLDLQPREVFQEDLVLTGYQVDKNKDDELTGF
notes: type III Affimer monomer made in E. coli; His-tagged; also called Clone 80 parent control molecule
Regarding B1, in [2], the “IC50, PD-1/PD-L1 blockade Bioassay (Promega)” value stood at 30 nM. For the same molecule, in assay [3], the “EC50 (read off the curve); Promega PD-1/PD-L1 blockade bioassay, fold of induction” value (“EC50 (read off the curve) … fold of induction” for short) was ~80 nM. The molecule further returned an IC50 in assay [4] of 2.6 nM. Moreover, in assay [5], the “% (cells in the positive gate)” value was 98.9% and the MFI worked out at 1330 MFI. Further, in assay [6], the IC50 came to 0.19 nM. In [7], the Kd came to 0.568 nM, the koff was 0.00163 s⁻¹ and the kon came out at 2.88e+06 M⁻¹ s⁻¹. In assay [8], it took 0.538 nM to reach a half-maximal effect (EC50).

B2: Clone 80 monomer (mammalian, HEK-expressed) (designed binder)
chain: MIPGGLSEAKPATPEIQEIVDKVKPQLEEKTGETYGKLEAVQYKTQVVRRKHFPQWPGTNYYIKVRAGDNKYMHLKVFKSLDLQPREVFQEDLVLTGYQVDKNKDDELTGF
notes: also called mammalian produced monomer; mammalian expressed AFFIMER Clone 80 monomer
In [9], B2 yielded a Kd of 0.54 nM. In assay [10], this molecule yielded a koff of 0.0014 s⁻¹ and a kon of 2.58e+06 M⁻¹ s⁻¹. In addition, the IC50 in assay [11] stood at 0.26 nM.

B3: Clone 80 R86A (designed binder)
chain: MIPGGLSEAKPATPEIQEIVDKVKPQLEEKTGETYGKLEAVQYKTQVVRRKHFPQWPGTNYYIKVRAGDNKYMHLKVFKSLDLQPAEVFQEDLVLTGYQVDKNKDDELTGF
notes: alanine mutant of Clone 80 made in E. coli
Take B3: the “EC50 (read off the curve) … fold of induction” value in [12] was ~70 nM. The molecule further returned a Kd in assay [13] of 4.02 nM. In assay [4], this molecule came in with a half-maximal inhibitory concentration (IC50) of 2.33 nM.

B4: Clone 80 Q90A (designed binder)
chain: MIPGGLSEAKPATPEIQEIVDKVKPQLEEKTGETYGKLEAVQYKTQVVRRKHFPQWPGTNYYIKVRAGDNKYMHLKVFKSLDLQPREVFAEDLVLTGYQVDKNKDDELTGF
notes: as for B3
Take B4: the “EC50 (read off the curve) … fold of induction” value in assay [14] is ~100 nM. The same molecule yielded a Kd in assay [13] of 0.97 nM. For the same molecule, the IC50 in assay [4] was 2.23 nM.

B5: Clone 80 E87A (designed binder)
chain: MIPGGLSEAKPATPEIQEIVDKVKPQLEEKTGETYGKLEAVQYKTQVVRRKHFPQWPGTNYYIKVRAGDNKYMHLKVFKSLDLQPRAVFQEDLVLTGYQVDKNKDDELTGF
notes: as for B3
For the molecule B5, the “EC50 (read off the curve) … fold of induction” value in assay [15] is ~100 nM. For the same molecule, the Kd in assay [13] worked out at 0.61 nM. For the same molecule, the IC50 in [4] was 3.83 nM.

B6: Clone 80 K51A (designed binder)
chain: MIPGGLSEAKPATPEIQEIVDKVKPQLEEKTGETYGKLEAVQYKTQVVRRAHFPQWPGTNYYIKVRAGDNKYMHLKVFKSLDLQPREVFQEDLVLTGYQVDKNKDDELTGF
notes: as for B3
Take B6: in assay [16], the “EC50 (read off the curve) … fold of induction” value is ~200 nM. For the same molecule, in assay [13], the Kd was 0.66 nM. Moreover, the IC50 in [4] was 3.35 nM.

B7: Clone 80 R49A (designed binder)
chain: MIPGGLSEAKPATPEIQEIVDKVKPQLEEKTGETYGKLEAVQYKTQVVARKHFPQWPGTNYYIKVRAGDNKYMHLKVFKSLDLQPREVFQEDLVLTGYQVDKNKDDELTGF
notes: as for B3
As for B7, the “EC50 (read off the curve) … fold of induction” value in assay [3] is ~200 nM. This molecule also registered a Kd in assay [13] of 2 nM. The IC50 in assay [4] amounted to 4.83 nM.

B8: Clone 80 V88A (designed binder)
chain: MIPGGLSEAKPATPEIQEIVDKVKPQLEEKTGETYGKLEAVQYKTQVVRRKHFPQWPGTNYYIKVRAGDNKYMHLKVFKSLDLQPREAFQEDLVLTGYQVDKNKDDELTGF
notes: as for B3
As for B8, the “EC50 (read off the curve) … fold of induction” value in assay [17] was ~100 nM. In assay [13], this molecule came in with a Kd of 1.96 nM. The same molecule had an IC50 in assay [4] of 2.56 nM.

B9: Clone 80 ILF (designed binder)
chain: MIPGGLSEAKPATPEIQEIVDKVKPQLEEKTGETYGKLEAVQYKTQVVRRKHFPQWPGTNYYIKVRAGDNKYMHLKVFKSLDLQPREVFQEDLVLTGYQVDKNKDDELTGFAEAAAKEAAAKEAAAKEAAAKEAAAKEAAAKMIPGGLSEAKPATPEIQEIVDKVKPQLEEKTGETYGKLEAVQYKTQVVRRKHFPQWPGTNYYIKVRAGDNKYMHLKVFKSLDLQPREVFQEDLVLTGYQVDKNKDDELTGF
notes: Two Clone 80 units in one chain joined by the rigid linker A(EAAAK)6; also called in-line fusion (ILF) homodimer; Dimer ILF format
Molecule B9 yielded a Kd in assay [18] of 0.0103 nM. In assay [10], this molecule gave a koff of 4.56e-05 s⁻¹ and a kon of 4.44e+06 M⁻¹ s⁻¹. In assay [11], this molecule gave a 50% inhibitory concentration (IC50) of 0.05 nM.

The record behind these values is patent US20250243277A1 (AVACTA LIFE SCIENCES, published 2025).
